For one assay, the target named is HLA-A*02:16. Briefly: IEDB peptide-MHC binding, purified MHC/direct/fluorescence; filed as Kd, often an IC50 or EC50 that approximates it; ≥ and ≤ were set here for values at or beyond the usual limits of such assays.
Another assay concerns the target HLA-B*39:01. The assay is described as above.
The next assay addresses HLA-A*03:01. The description is as above.
In the next assay the target is HLA-A*02:12. Described as above.
For another assay, the target named is HLA-A*02:03. Described as above.
The target of the next assay is HLA-B*27:03. Described as above.
The target of another assay is HLA-A*02:01. The description is as above.
The target in another assay is HLA-B*15:01. Described as above.
A further assay deals with HLA-A*69:01. The assay is described as above.
For another assay, the target named is HLA-B*51:01. Described as above.
Another assay deals with HLA-A*26:01. Described as above.
A further assay concerns the target HLA-B*18:01. The assay is described as above.
In the next assay the target is HLA-B*57:01. The assay is described as above.
Another assay addresses HLA-B*46:01. Described as above.
In the next assay the target is HLA-A*02:19. The assay is described as above.
The next assay deals with HLA-A*24:03. The description is as above.
Another assay deals with HLA-A*29:02. The description is as above. Conditions: source organism: Entamoeba histolytica HM-1:IMSS.
Another assay has as its target HLA-B*15:17. The assay is described as above.
The target of a further assay is HLA-A*02:11. The assay is described as above. Conditions: source organism: Entamoeba histolytica HM-1:IMSS.
The target in the next assay is HLA-A*01:01. The assay is described as above.
A further assay deals with HLA-A*31:01. The assay is described as above.
The target of another assay is HLA-A*11:01. The assay is described as above.
The next assay has as its target HLA-A*26:02. The description is as above. The settings on record: source organism: Variola virus.
For the next assay, the target named is HLA-A*26:03. The assay is described as above. Conditions: source organism: Variola virus.
A further assay concerns the target HLA-A*68:02. The description is as above. The settings on record: source organism: Camelpox virus M-96.
The target of a further assay is HLA-B*08:02. The description is as above.
The next assay deals with HLA-B*58:01. Described as above.
Assay [1] addresses HLA-B*08:01. Briefly: IEDB peptide-MHC binding, purified MHC/competitive/fluorescence; filed as Kd, often an IC50 or EC50 that approximates it; ≥ and ≤ were set here for values at or beyond the usual limits of such assays. Conditions: source organism: Variola virus.
For assay [2], the target named is HLA-B*07:02. The description is as above. Conditions: source organism: Variola virus.
A further assay addresses HLA-A*24:02. The description is as above.
For another assay, the target named is HLA-B*48:01. The experiment in a line: IEDB peptide-MHC binding, purified MHC/direct/fluorescence; filed as Kd, often an IC50 or EC50 that approximates it; ≥ and ≤ were set here for values at or beyond the usual limits of such assays. The settings on record: source organism: Giardia lamblia ATCC 50803.
A further assay deals with HLA-B*40:01. The description is as above. The settings on record: source organism: Giardia lamblia ATCC 50803.
For assay [3], the target named is HLA-B*08:01. The assay is described as above. The settings on record: source organism: Giardia lamblia ATCC 50803.
In another assay the target is HLA-B*27:05. The description is as above. The settings on record: source organism: Giardia lamblia ATCC 50803.
The next assay deals with HLA-B*38:01. The description is as above. The settings on record: source organism: Giardia lamblia ATCC 50803.
The target in assay [4] is HLA-B*07:02. The assay is described as above. Conditions: source organism: Giardia lamblia ATCC 50803.
Another assay addresses HLA-C*07:02. Described as above. The settings on record: source organism: Listeria monocytogenes EGD-e.
The next assay has as its target HLA-C*15:02. The assay is described as above. Conditions: source organism: Listeria monocytogenes EGD-e.
A further assay concerns the target HLA-C*14:02. Described as above. The settings on record: source organism: Listeria monocytogenes EGD-e.
Setting [5] is: source organism: Brucella suis 1330.
The mark [6] stands for this setting: source organism: Entamoeba histolytica HM-1:IMSS.
Where [7] appears, read: source organism: Camelpox virus M-96.
[8] abbreviates: source organism: Giardia lamblia ATCC 50803.
Setting [9] is: source organism: Listeria monocytogenes EGD-e.

pKd: −log10 of the molar value. Some results are limits rather than exact numbers.

As usually defined, the pKd is the negative decadic logarithm of the Kd, by convention in mol/L. A higher pKd goes with a small Kd.

Regarding DPPEPLVRI, the pKd with HLA-A*02:16 (setting [5]), with HLA-B*39:01 (setting [5]), with HLA-A*03:01 (setting [5]), with HLA-A*02:12 (setting [5]), in the assay with HLA-A*02:03 (setting [5]) and with HLA-B*27:03 (setting [5]) was at most 4.70 in each case. Moreover, the pKd in the assay with HLA-A*02:01 (setting [5]) is at most 4.70; with HLA-B*15:01 (setting [5]), at most 4.70; with HLA-A*69:01 (setting [5]), at most 4.70; with HLA-B*51:01 (setting [5]), 5.73; with HLA-A*26:01 (setting [5]), at most 4.70; with HLA-B*18:01 (setting [5]), at most 4.70. Further, the pKd with HLA-B*57:01 (setting [5]), in the assay with HLA-B*46:01 (setting [5]) and with HLA-A*02:19 (setting [5]) was at most 4.70 each time.
Regarding DSFAKQPQW, the pKd with HLA-A*02:16 (setting [6]), with HLA-B*39:01 (setting [6]), with HLA-A*03:01 (setting [6]), in the assay with HLA-A*02:12 (setting [6]), with HLA-A*02:03 (setting [6]) and in the assay with HLA-B*27:03 (setting [6]) was at most 4.70 in each case. Further, the negative logarithm of the Kd (pKd) with HLA-A*02:01 (setting [6]), in the assay with HLA-A*24:03 (setting [6]), with HLA-A*29:02, with HLA-B*15:01 (setting [6]), in the assay with HLA-A*69:01 (setting [6]) and with HLA-A*26:01 (setting [6]) was at most 4.70 each time. Besides, the pKd was at most 4.70 in the assay with HLA-B*46:01 (setting [6]), 6.69 in the assay with HLA-B*15:17 (setting [6]), at most 4.70 in the assay with HLA-A*02:19 (setting [6]) and at most 4.70 with HLA-A*02:11.
For IFLIITKVF, the pKd with HLA-A*01:01 (setting [7]) is at most 4.70; with HLA-A*31:01 (setting [7]), at most 4.70; in the assay with HLA-A*11:01 (setting [7]), at most 4.70; with HLA-A*02:01 (setting [7]), at most 4.70; in the assay with HLA-A*24:03 (setting [7]) it was 5.96; with HLA-B*15:01 (setting [7]), at most 4.70. For the same sequence, the pKd with HLA-A*69:01 (setting [7]), with HLA-A*26:01 (source organism: Variola virus), with HLA-B*18:01 (setting [7]), with HLA-A*26:02, with HLA-A*26:03 and with HLA-B*57:01 (setting [7]) was at most 4.70 each time. In addition, the pKd in the assay with HLA-B*15:17 (setting [7]) is at most 4.70; with HLA-A*68:02 it was at most 4.70; in the assay with HLA-B*08:02 (source organism: Variola virus), at most 4.70; with HLA-B*58:01 (setting [7]), at most 4.70; with HLA-B*08:01 [1], at most 4.70; in the assay with HLA-B*07:02 [2], 5.52.
For the sequence LYKKLKREITF, in the assay with HLA-A*24:02 (source organism: Influenza A virus (A/goose/Hong Kong/437-6/1999(H5N1))), the negative-log Kd (pKd) was 8.29.
QPWTPVSSF: the pKd with HLA-B*48:01, in the assay with HLA-B*40:01, with HLA-A*01:01 (setting [8]), with HLA-A*31:01 (setting [8]), with HLA-A*03:01 (setting [8]) and with HLA-A*11:01 (setting [8]) was at most 4.70 throughout. Further, the pKd with HLA-B*08:01 [3], in the assay with HLA-A*02:01 (setting [8]), with HLA-B*27:05, in the assay with HLA-B*15:01 (setting [8]), with HLA-A*69:01 (setting [8]) and with HLA-B*51:01 (setting [8]) was at most 4.70 in each case. Further, the pKd in the assay with HLA-B*38:01 is at most 4.70; with HLA-A*26:01 (setting [8]) it was at most 4.70; with HLA-B*18:01 (setting [8]), 5.61; in the assay with HLA-B*57:01 (setting [8]) it was at most 4.70; with HLA-B*46:01 (setting [8]), at most 4.70; in the assay with HLA-B*15:17 (setting [8]), 5.58. The pKd was at most 4.70 with HLA-B*08:02 (setting [8]), 6.87 with HLA-B*07:02 [4] and 4.72 with HLA-B*58:01 (setting [8]).
For the sequence RYGPALSI, in the assay with HLA-A*24:02 (source organism: Influenza A virus H3N2), the pKd was at least 10.00.
Take RYPRSVLTF: the pKd with HLA-C*07:02 is 7.36; with HLA-C*15:02 it was at most 4.70; with HLA-A*24:03 (setting [9]), at least 9.00; in the assay with HLA-C*14:02, at least 9.00; with HLA-A*24:02 (setting [9]), at least 10.00.
Turning to SWFNSFLTHAL, the pKd with HLA-A*24:02 (source organism: Influenza A virus (A/X-31(H3N2))) is 6.82.

(Values after the Immune Epitope Database (IEDB).)
